Experiment [1] addresses T1, IGF-1 (UniProt P05019 49-118).
T1 construct: Biotinylated IGF-1 is written as the same molecule; also called biotinylated IGF-1; IGF-1-bio
As to the kind of experiment: biotinylated IGF-1 ELISA on Fc-captured chimera, 4 C PBS control (the reference); experiment 4-81. The protocol:
(§1) Plates were coated with goat anti-human Fc antibody, blocked and then incubated with chimera as in the Fc ELISA. Biotinylated IGF-1 (GroPep) or VEGF-Biotin (R&D Systems VEGF biotinylated with sulfo-NHS-LC-biotin as per instructions (Pierce) was added for 2 hours followed by streptavidin-HRP (Jackson Immunoresearch) for 30 minutes. Chromogenic development with tetramethyl benzidine was performed as described above.
(§2) To test the stability of the present chimeras, some purified chimeras (see, Table 4) were incubated with PBS or a conditioned medium from the MCF-7 cell line overnight at 37° C. and PBS overnight at 4° C. The IGF-1 binding and VEGF binding were measured using the biotinylated IGF-1 and VEGF.
On the technique in general: ELISA stands for enzyme-linked immunosorbent assay.

Experiment [2] deals with T2, bFGF (UniProt P09038 143-288, limits assumed).
T2 construct: also called basic fibroblast growth factor
As to the kind of experiment: Biacore SPR, immobilised bFGF; experiment 4-79. The protocol:
(§3) Biacore binding was performed at David Myszka's laboratory at the University of Utah or at the Genomic Research Center at Academia Sinica. Surfaces of binding protein chimera were made via chemical immobilization on a CM4 chip using standard amine coupling chemistry. […] Excess surface carboxyl activated sites on all four flow cells was blocked using the doubly positively charged species ethylenediamine. Binding experiments (but not immobilizations) in HBS-P (10 mM HEPES pH 7.4, 150 mM NaCl, 0.05% P20), The HBS-P was supplemented with BSA at 0.2 mg/mL, or HBS-P was supplemented with 500 mM NaCl (650 mM NaCl, final concentration). Analytes were also reconstituted in the corresponding buffer. All experiments were performed at 25° C. 1/150 dilutions of phosphoric acid were used to regenerate IGFBP3-Fc surfaces and a sequence of 3 M MgCl₂ followed by 5 M GuCl was used to regenerate surfaces immobilized with growth factor. Dissociation constants reported below used immobilized binding protein unless noted. Differences between binding constants may be expected between growth factor immobilization and chimera immobilization.
On the technique in general: SPR reads the build-up and loss of mass on a sensor chip optically.

For experiment [3], the target named is T1, IGF-1. Nature of the experiment: biotinylated IGF-1 ELISA on Fc-captured chimera, after overnight in PBS at 37 C, against the 4 C PBS control; experiment 4-81. On the procedure: as §1, §2
The target of experiment [4] is T1, IGF-1. As to the kind of experiment: cell-based or functional assay.
Experiment [5] concerns the target T3, nrgbx (UniProt Q02297-6 2-246, limits assumed).
T3 sequence (looked up): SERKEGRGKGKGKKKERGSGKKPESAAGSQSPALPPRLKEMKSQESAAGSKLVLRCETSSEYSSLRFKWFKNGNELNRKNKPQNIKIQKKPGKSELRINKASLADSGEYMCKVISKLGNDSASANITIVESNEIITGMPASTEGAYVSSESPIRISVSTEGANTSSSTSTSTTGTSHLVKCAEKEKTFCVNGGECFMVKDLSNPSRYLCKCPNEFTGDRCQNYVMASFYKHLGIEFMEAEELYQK
As to the kind of experiment: cell-based or functional assay.

In experiment [6] the target is T1, IGF-1. Nature of the experiment: Biacore SPR; experiment 4-79. On the procedure: as §3
The target in experiment [7] is T1, IGF-1. As to the kind of experiment: biotinylated IGF-1 ELISA on Fc-captured chimera, after overnight in MCF-7 conditioned medium at 37 C, against the 4 C PBS control; experiment 4-81. The protocol:
as §1, §2

The target of experiment [8] is T1, IGF-1. Nature of the experiment: biotinylated IGF-1 ELISA on Fc-captured chimera, 4 C PBS control (the reference); experiment 3-192. On the procedure: as §1, §2
A further experiment deals with T4, HGF (UniProt P14210 32-728).
T4 construct: also called hepatocyte growth factor
As to the kind of experiment: Biacore SPR, growth factor immobilised. On the procedure:
as §3
(§4) We selected his3t33Fc and chimera A for further analysis and examined their growth factor binding by Biacore and ELISA competition assays.

The target in experiment [9] is T1, IGF-1. Nature of the experiment: biotinylated IGF-1 ELISA on Fc-captured chimera, after overnight in MCF-7 conditioned medium at 37 C, against the 4 C PBS control; experiment 3-192. On the procedure:
as §1, §2

Experiment [10] concerns the target T1, IGF-1. Nature of the experiment: biotinylated IGF-1 ELISA on Fc-captured chimera, after overnight in PBS at 37 C, against the 4 C PBS control; experiment 3-192. On the procedure: as §1, §2
For experiment [11], the target named is T2, bFGF. Nature of the experiment: Biacore SPR, growth factor immobilised; growth factor immobilised.
In experiment [12] the target is T1, IGF-1. As to the kind of experiment: Biacore SPR, chimera immobilised. On the procedure: as §3, §4
Experiment [13] addresses T3, nrgbx. Nature of the experiment: Biacore SPR, chimera immobilised. The protocol:
as §3, §4

The target of a further experiment is mIGF-2 (UniProt P09535 25-91). As to the kind of experiment: Biacore SPR, chimera immobilised. The protocol:
as §3, §4

The next experiment has as its target T5, VEGF-B (UniProt P49765-2 22-188).
T5 sequence (looked up): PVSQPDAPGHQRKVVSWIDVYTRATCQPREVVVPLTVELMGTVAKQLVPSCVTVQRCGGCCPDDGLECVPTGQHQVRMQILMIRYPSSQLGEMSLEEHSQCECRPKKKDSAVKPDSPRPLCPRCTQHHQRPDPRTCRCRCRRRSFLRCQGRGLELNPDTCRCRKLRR
Nature of the experiment: Biacore SPR, chimera immobilised. The protocol:
as §3, §4

The target in a further experiment is IGF-2 (UniProt P01344 25-91). Nature of the experiment: Biacore SPR, chimera immobilised. On the procedure:
as §3, §4

Another experiment concerns the target TGF-α (UniProt P01135 40-89). Nature of the experiment: Biacore SPR, chimera immobilised. The protocol: as §3, §4
Another experiment has as its target mIGF-1 (UniProt P05017 49-118). Nature of the experiment: Biacore SPR, chimera immobilised. The protocol:
as §3, §4

In experiment [14] the target is T6, VEGF (UniProt P15692-4 27-191). As to the kind of experiment: Biacore SPR, chimera immobilised. The protocol:
as §3, §4

Experiment [15] concerns the target T1, IGF-1. Nature of the experiment: SPR, in the presence of 3 nM VEGF; presence of 3 nM VEGF. The protocol:
as §3
(§5) To further examine the nature of the VEGF and IGF binding to chimera A, simultaneous binding was examined using the surface plasmon resonance.

In experiment [16] the target is T2, bFGF. As to the kind of experiment: Biacore SPR, growth factor immobilised. The protocol:
as §3, §4

Experiment [17] concerns the target T6, VEGF. As to the kind of experiment: Biacore SPR, chimera immobilised; footnote: the kd is very low and difficult to measure. The protocol: as §3, §4
Experiment [18] concerns the target T1, IGF-1. Nature of the experiment: SPR, without VEGF; absence of VEGF. On the procedure:
as §3, §5

In the next experiment the target is T7, PIGF (UniProt P49763-2 21-149).
T7 construct: also called placental growth factor
T7 sequence (looked up): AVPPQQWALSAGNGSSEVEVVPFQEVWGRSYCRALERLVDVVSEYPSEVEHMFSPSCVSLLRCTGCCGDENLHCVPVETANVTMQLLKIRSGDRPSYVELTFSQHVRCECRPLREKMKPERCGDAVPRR
Nature of the experiment: Biacore SPR, chimera immobilised. On the procedure: as §3, §4

T2 sequence (P09038 143-288 limits assumed): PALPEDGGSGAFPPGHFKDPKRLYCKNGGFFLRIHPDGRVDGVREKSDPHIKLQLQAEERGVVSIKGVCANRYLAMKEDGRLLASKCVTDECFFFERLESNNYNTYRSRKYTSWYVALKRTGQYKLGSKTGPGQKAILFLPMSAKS
T1 sequence (P05019 49-118 limits assumed): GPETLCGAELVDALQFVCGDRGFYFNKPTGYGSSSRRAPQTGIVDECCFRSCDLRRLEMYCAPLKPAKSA
T6 sequence (P15692 other isoform, or with tags, fused parts or gaps limits assumed): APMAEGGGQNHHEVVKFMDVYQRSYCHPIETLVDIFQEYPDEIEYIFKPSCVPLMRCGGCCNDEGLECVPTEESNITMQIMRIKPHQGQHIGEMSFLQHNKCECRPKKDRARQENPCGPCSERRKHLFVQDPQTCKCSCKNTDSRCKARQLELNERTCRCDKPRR
T4 sequence (P14210 32-728 limits assumed): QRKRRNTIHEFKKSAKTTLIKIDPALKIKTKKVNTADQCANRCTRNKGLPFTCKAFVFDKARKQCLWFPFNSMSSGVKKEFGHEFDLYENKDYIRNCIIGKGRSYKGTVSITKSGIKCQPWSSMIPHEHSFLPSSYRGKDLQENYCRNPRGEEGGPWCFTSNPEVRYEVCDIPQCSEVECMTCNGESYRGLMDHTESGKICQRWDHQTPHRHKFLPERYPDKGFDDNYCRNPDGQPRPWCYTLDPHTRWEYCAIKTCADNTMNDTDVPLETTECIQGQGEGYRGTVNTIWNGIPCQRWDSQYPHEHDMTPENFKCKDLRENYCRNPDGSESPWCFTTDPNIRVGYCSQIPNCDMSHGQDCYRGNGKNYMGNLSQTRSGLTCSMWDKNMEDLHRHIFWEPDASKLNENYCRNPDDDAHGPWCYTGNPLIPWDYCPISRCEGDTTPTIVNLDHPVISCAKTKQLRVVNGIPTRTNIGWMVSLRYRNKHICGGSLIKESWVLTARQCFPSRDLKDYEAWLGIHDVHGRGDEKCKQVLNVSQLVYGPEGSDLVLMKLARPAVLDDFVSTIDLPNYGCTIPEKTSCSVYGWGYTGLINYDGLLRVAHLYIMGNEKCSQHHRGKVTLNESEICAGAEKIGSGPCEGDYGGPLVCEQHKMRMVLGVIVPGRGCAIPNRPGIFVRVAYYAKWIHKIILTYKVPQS
TGF-α, sequence (P01135 40-89 limits assumed): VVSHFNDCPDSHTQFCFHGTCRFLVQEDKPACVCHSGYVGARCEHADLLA
mIGF-2, sequence (P09535 25-91 limits assumed): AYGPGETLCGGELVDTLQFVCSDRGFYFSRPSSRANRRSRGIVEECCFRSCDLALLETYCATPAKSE
IGF-2, sequence (P01344 25-91 limits assumed): as the sequence (P09535 25-91 limits assumed) above, with G3R, G5S, S22G, S32A, A35V, N36S counted along it
mIGF-1, sequence (P05017 49-118 limits assumed): as the sequence (P05019 49-118 limits assumed) above, with D20P, S35I, A67T, S69A counted along it

B1: IGFBP3-Fc-3 (Fc fusion)
chain: GASSAGLGPVVRCEPCDARALAQCAPPPAVCAELVREPGCGCCLTCALSEGQPCGIYTERCGSGLRCQPSPDEARPLQALLDGRGLCVNASAVSRPAPPAPGNASESEEDRSAGSVESPSVSSTHRVSDPKFHPKGHAKVDYESQSTDTQNFSSESKRETEYGPCRREMEDTLNHLKFLNVLSPRGVHIPNCDKKGFYKKKQCRPSKGRKRGFCWCVDKYGQPLPGYTTKGKEDVHCYSMQSKVECPPCPAPPVAGPSVFLFPPKPKDQLMISRTPEVTCVVVDVSHEDPEVKFNWYVDGVEVHNAKTKPREEQYNSTYRVVSVLTVLHQDWLNGKEYKCKVSNKGLPSSIEKTISKAKGQPREPQVYTLPPSREEMTKNQVSLTCLVKGFYPSDIAVEWESNGQPENNYKTTPPVLDSDGSFFLYSKLTVDKSRWQQGNVFSCSVMHEGLHNHYTQKSLSLSPGK
notes: IGFBP3 with IGFBP3 linker deletion 3, fused to Fc; dimeric; also called 3(del3)3; 3(del3)3Fc
Consider B1, for which the “IGF-1 binding remaining over controls” value in the experiment with IGF-1 [1] came out at 100%; in the experiment with IGF-1 [3] it was 84%; in the experiment with IGF-1 [7] it was 49%. In addition, the Kd (as a rule, a measure of binding affinity in units of concentration) in the experiment with bFGF [2] turned out to be 3.44 nM; with IGF-1 [6], 0.371 nM. In addition, the “EC50 in inhibiting IGF-1 induced proliferation of hep3B cells” value with IGF-1 [4] stood at 21 nM. Besides, the “IC50 in inhibiting neuregulin-induced proliferation” value with nrgbx [5] amounted to 80 nM.

B2: IGFBP3-Fc-1 (Fc fusion)
chain: GASSAGLGPVVRCEPCDARALAQCAPPPAVCAELVREPGCGCCLTCALSEGQPCGIYTERCGSGLRCQPSPDEARPLQALLDGRGLCVNASAVSKGHAKDSQRYKVDYESQSTDTQNFSSESKRETEYGPCRREMEDTLNHLKFLNVLSPRGVHIPNCDKKGFYKKKQCRPSKGRKRGFCWCVDKYGQPLPGYTTKGKEDVHCYSMQSKVECPPCPAPPVAGPSVFLFPPKPKDQLMISRTPEVTCVVVDVSHEDPEVKFNWYVDGVEVHNAKTKPREEQYNSTYRVVSVLTVLHQDWLNGKEYKCKVSNKGLPSSIEKTISKAKGQPREPQVYTLPPSREEMTKNQVSLTCLVKGFYPSDIAVEWESNGQPENNYKTTPPVLDSDGSFFLYSKLTVDKSRWQQGNVFSCSVMHEGLHNHYTQKSLSLSPGK
notes: IGFBP3 with IGFBP3 linker deletion 1 (55 amino acids deleted from the linker region), fused to Fc; dimeric; also called h3t33fc; his3t33fc
As to B2, the “IGF-1 binding remaining over controls” value worked out at 100% with IGF-1 [1]; 100% with IGF-1 [8]; 101% with IGF-1 [3]; 54% with IGF-1 [9]; 99% with IGF-1 [10]; 51% in the experiment with IGF-1 [7]. For the same molecule, the Kd in the experiment with bFGF [2] was 13.3 nM; with HGF, 0.608 nM; with bFGF [11], 13 nM; in the experiment with IGF-1 [12] it was 0.161 nM; with nrgbx [13], 5.98 nM; in the experiment with mIGF-2 it was 0.14 nM. For the same molecule, the Kd turned out to be 3 nM in the experiment with VEGF-B, 0.174 nM with IGF-2, 0.21 nM with mIGF-1 and 0.575 nM with IGF-1 [6]. Besides, the binding result with TGF-α and with VEGF [14] was “no binding” throughout.

B3: IGFBP3-Fc-VEGF-1 (Fc fusion)
chain: GASSAGLGPVVRCEPCDARALAQCAPPPAVCAELVREPGCGCCLTCALSEGQPCGIYTERCGSGLRCQPSPDEARPLQALLDGRGLCVNASAVSKGHAKDSQRYKVDYESQSTDTQNFSSESKRETEYGPCRREMEDTLNHLKFLNVLSPRGVHIPNCDKKGFYKKKQCRPSKGRKRGFCWCVDKYGQPLPGYTTKGKEDVHCYSMQSKAPPAPGNASESEEDRSAGIYIFISDTGRPFVEMYSEIPEIIHMTEGRELVIPCRVTSPNITVTLKKFPLDTLIPDGKRIIWDSRKGFIISNATYKEIGLLTCEATVNGHLYKTNYLTHRQGYRIYDVVLSPSHGIELSVGEKLVLNCTARTELNVGIDFNWEYPSSKHQHKKLVNRDLKTQSGSEMKKFLSTLTIDGVTRSDQGLYTCAASSGLMTKKNSTFVRVHEKVECPPCPAPPVAGPSVFLFPPKPKDQLMISRTPEVTCVVVDVSHEDPEVKFNWYVDGVEVHNAKTKPREEQYNSTYRVVSVLTVLHQDWLNGKEYKCKVSNKGLPSSIEKTISKAKGQPREPQVYTLPPSREEMTKNQVSLTCLVKGFYPSDIAVEWESNGQPENNYKTTPPVLDSDGSFFLYSKLTVDKSRWQQGNVFSCSVMHEGLHNHYTQKSLSLSPGK
notes: IGFBP3 with linker deletion 1 - gly 3 linker - v1v2 (VEGFR1 domain 2, VEGFR2 domain 3) - Fc; dimeric; also called chimera A; chimeraA
With B3, the Kd was 0.2 nM with IGF-1 [15]; 1.92 nM with bFGF [16]; 0.0218 nM with HGF; 0.0038 nM with VEGF [17]; 0.4 nM with IGF-1 [18]; 0.0245 nM with IGF-1 [12]. The dissociation constant (Kd) came out at 4.88 nM with nrgbx [13]; 0.0513 nM with mIGF-2; 0.999 nM with PIGF; 0.5 nM with VEGF-B; 0.0389 nM with IGF-2; 9250 nM in the experiment with TGF-α. The molecule also returned a Kd with mIGF-1 of 0.137 nM. Also, the “IGF-1 binding remaining over controls” value in the experiment with IGF-1 [8] was determined as 100%; in the experiment with IGF-1 [9], 77%; in the experiment with IGF-1 [10], 94%. Besides, in the experiment with nrgbx [5], the “IC50 in inhibiting neuregulin-induced proliferation” value came to 47 nM.
